B1: Proteinase K: proteolytic enzyme cleaving peptide bonds with F in P1 position (protein, UniProt P06873 106-384, looked up)
Proteinase K: AAQTNAPWGLARISSTSPGTSTYYYDESAGQGSCVYVIDTGIEASHPEFEGRAQMVKTYYYSSRDGNGHGTHCAGTVGSRTYGVAKKTQLFGVKVLDDNGSGQYSTIIAGMDFVASDKNNRNCPKGVVASLSLGGGYSSSVNSAAARLQSSGVMVAVAAGNNNADARNYSPASEPSVCTVGASDRYDRRSSFSNYGSVLDIFGPGTSILSTWIGGSTRSISGTSMATPHVAGLAAYLMTLGKTTAASACRYIADTANKGDLSNIPFGTVNLLAYNNYQA
B2: Thermolysin: proteolytic enzyme (metalloprotease) (protein, UniProt P00800 233-548, looked up)
Thermolysin: ITGTSTVGVGRGVLGDQKNINTTYSTYYYLQDNTRGNGIFTYDAKYRTTLPGSLWADADNQFFASYDAPAVDAHYYAGVTYDYYKNVHNRLSYDGNNAAIRSSVHYSQGYNNAFWNGSQMVYGDGDGQTFIPLSGGIDVVAHELTHAVTDYTAGLIYQNESGAINEAISDIFGTLVEFYANKNPDWEIGEDVYTPGISGDSLRSMSDPAKYGDPDHYSKRYTGTQDNGGVHINSGIINKAAYLISQGGTHYGVSVVGIGRDKLGKIFYRALTQYLTPTSNFSQLRAAAVQSATDLYGSTSQEVASVKQAFDAVGVK

Test system: Fmoc-FRGD-PEGA surface tethered peptide (Fmoc-F↓RGD bond)
Assay: Enzymatic hydrolysis of PEGA surface tethered peptides analysed by HPLC
Format: biochemical
Details: for Fmoc-F-OH (%) / Fmoc-FR-OH (%): 37° C., 2 hours in enzyme solution, 100% = 4.08 nmol maximum Fmoc-peptide hydrolysed, n=9; for cleavage and selectivity for Fmoc-F↓RGD versus Fmoc-FR↓GD: HPLC
Description: Three proteolytic enzymes, chymotrypsin, thermolysin and proteinase K, that are known to cleave peptide bonds involving F amino acids in the P1 position were tested for their ability to selectively hydrolyse Fmoc-F↓RGD bond^15. […] Surfaces were incubated at 37° C. for 2 hours in enzyme solution (concentrations and activities are shown in Table 1) in phosphate buffer and the cleaved products were analysed by HPLC.
Surfaces were rinsed in a known volume (at least 4 ml) of a 50:50 mixture of acetonitrile (ACN) and water. The rinsing solution was kept and added to the enzyme solution that the surface was in. 1 ml of this solution was placed into an HPLC autosampler vial. The HPLC machine (manufactured by Dionex; California, USA) consisted of a P.680 HPLC pump joined to an ASI-100 Automated Sample Injector with a Dionex UVD17OU detector. The column was an EC 250/4.6 Nucleosil 100-5 C18, with an internal diameter of 4.6 mm and a column length of 250 mm containing particles of 5 μm in diameter. 100 μl was injected into the HPLC column at the start of each run and a buffer gradient run through the column, buffer A was 99.9% water and 0.1% TFA, buffer B was 99.9% ACN and 0.1% TFA. For quantification, three samples of each surface were produced and repeated three times.

| Molecule | Fmoc-F-OH (%) | Fmoc-FR-OH (%) | cleavage and selectivity for Fmoc-F↓RGD versus Fmoc-FR↓GD | maximum amount of Fmoc-peptide cleaved from the surface (determined by HPLC) [nmol] |
| --- | --- | --- | --- | --- |
| B1 | 60 ± 3.0 | 40 ± 8.0 | highest cleavage but poor selectivity | 4.08 |
| B2 | 40 ± 2.4 | 27 ± 3.5 | poor selectivity | – |
